Measurements as given in IntAct's records for PubMed 22307274.

B1: Histone chaperone RTT106 (Saccharomyces cerevisiae), P40161 (parent)
chain: MSKLFLDELPESLSRKIGTVVRVLPSSLEIFEELYKYALNENSNDRSGRHKKPRIDVSSDLLKTDEISETNTIFKLEGVSVLSPLRKKLDLVFYLSNVDGSPVITLLKGNDRELSIYQLNKNIKMASFLPVPEKPNLIYLFMTYTSCEDNKFSEPVVMTLNKENTLNQFKNLGLLDSNVTDFEKCVEYIRKQAILTGFKISNPFVNSTLVDTDAEKINSFHLQCHRGTKEGTLYFLPDHIIFGFKKPILLFDASDIESITYSSITRLTFNASLVTKDGEKYEFSMIDQTEYAKIDDYVKRKQMKDKSMSEELKAKSKSKGQATDGTADQPSILQEATRQMQDEKKAGVFSDDDEENDQNFEAESDLSDGSGQESSDGAEDGEEAEEDDEEDDEEEDKKGQSALNRDNSFASINGQPEQELQYKEFKEPLELEDIPIEIDNDDDEDDEDGSGVEYD

Variants of: B1
Conditions: with h3_yeast HHT1, P61830

Row | effect of a mutation on the interaction | Variant
1 | decreasing interaction strength | Q288A
2 | disrupting interaction strength | Y261A
3 | disrupting interaction strength | F269A
4 | disrupting interaction strength | I294A

The remaining lines, values behind:

Row | Variant | effect of a mutation on the interaction
5 | Y291A | disrupting interaction strength
6 | I259A | decreasing interaction strength

Variants of: B1
Conditions: with h3_yeast HHT1, P61830
Remark: another data set of the same source

Row | effect of a mutation on the interaction | Variant
7 | disrupting interaction strength | I259A
8 | disrupting interaction strength | D295A
9 | disrupting interaction strength | Y297A
